Measured values published in paper doi:10.1101/757856.

Assays:
[1] = biological target: full-length human Neurofibromin (His6-tagged, purified) (human) (UniProt P21359); test: negative stain electron microscopy
[2] = biological target: full-length human Neurofibromin (His6-tagged, purified) (human) (UniProt P21359); test: SEC
[3] = biological target: full-length human Neurofibromin (His6-tagged, purified) (human) (UniProt P21359); test: AUC
[4] = biological target: full-length human Neurofibromin (His6-tagged, purified) (human) (UniProt P21359); test: SAXS and SANS
[5] = biological target: full-length human Neurofibromin (His6-tagged, purified) (human) (UniProt P21359); test: SEC-MALS

stoichiometry N [1]: 2
stoichiometry N [2]: 2
Kd [3]: < 5 nM
stoichiometry N [3]: 2
stoichiometry N [4]: 2
stoichiometry N [5]: 2
Substance: full-length human Neurofibromin (His6-tagged, purified), P21359-2 1-2818
